Test results taken from patent US20220185900A1 (Regeneron, published 2022).

Legend:
hRET.mmh [1] = target: T1, hRET.mmh (human, UniProt P07949 29-635, biotinylated in the ELISA of Example 4 (biot-hRET.mmh); not in the SPR of Example 3); experiment: SPR Biacore T200, mAb capture, 25 C
T1 construct: also called biot-hRET.mmh; soluble monomeric human RET
Description: (§1) Binding affinities and kinetic constants of human anti-RET antibodies were determined by surface plasmon resonance (Biacore T200) at […] (Tables 2-3). […] Binding equilibrium dissociation constants (KD) and dissociative half-lives (t_{1/2}) were calculated from the kinetic rate constants as: KD [M]=kd/kₐ; and t_{1/2}(min)=(ln2/(60*kd). Calculations were performed using BiacoreT200 evaluation software v1.0.

[2] = target: T2, Macaca fascicularis (mf) RET.mmh (Macaca fascicularis); experiment: SPR Biacore T200, mAb capture, 25 C
T2 construct: also called monkey RET
T2 chain: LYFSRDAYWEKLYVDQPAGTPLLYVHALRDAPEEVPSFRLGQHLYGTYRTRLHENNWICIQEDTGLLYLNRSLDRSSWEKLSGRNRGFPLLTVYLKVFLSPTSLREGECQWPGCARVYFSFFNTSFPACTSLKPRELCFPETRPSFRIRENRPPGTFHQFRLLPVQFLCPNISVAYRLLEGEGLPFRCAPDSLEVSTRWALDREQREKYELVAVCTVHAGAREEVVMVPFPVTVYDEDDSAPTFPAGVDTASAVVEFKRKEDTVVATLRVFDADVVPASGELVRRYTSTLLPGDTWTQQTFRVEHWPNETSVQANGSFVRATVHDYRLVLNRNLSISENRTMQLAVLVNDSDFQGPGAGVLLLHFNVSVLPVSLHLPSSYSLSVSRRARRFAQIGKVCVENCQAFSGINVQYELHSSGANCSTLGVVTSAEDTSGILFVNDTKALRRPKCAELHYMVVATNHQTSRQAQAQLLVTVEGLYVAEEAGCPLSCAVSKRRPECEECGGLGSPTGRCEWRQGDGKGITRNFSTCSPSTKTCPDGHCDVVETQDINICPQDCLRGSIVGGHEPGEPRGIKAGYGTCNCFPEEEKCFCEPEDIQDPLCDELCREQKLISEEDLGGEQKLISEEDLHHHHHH
Description: as §1

hRET.mFc [3] = target: T3, hRET.mFc (human); experiment: SPR Biacore T200, mAb capture, 25 C
T3 construct: also called dimeric human RET
Description: as §1

hRET.mmh [4] = target: T1, hRET.mmh; experiment: SPR Biacore T200, mAb capture, 37 C
Description: as §1

[5] = target: T2, Macaca fascicularis (mf) RET.mmh; experiment: SPR Biacore T200, mAb capture, 37 C
Description: as §1

hRET.mFc [6] = target: T3, hRET.mFc; experiment: SPR Biacore T200, mAb capture, 37 C
Description: as §1

hRET.mmh [7] = target: T1, hRET.mmh; experiment: competition sandwich ELISA: 1 nM biot-hRET.mmh + antibody, plate-coated GDNF/GFRα1 co-complex

B1: H4H8046P (antibody, human IgG4, V domains shown)
VH: QVQLVQSRDEVKKPGASVKVSCKASGYTFTTYGISWVRQAPGQGLEWMGWINTYNGDTNYAQKVQDRVIMTTDTSTSTAYMELRSLRSDDTAVYFCAGARPLGGRRAFDIWGQGTMVTVSS
VL: DIQMTQSPSSLSASVGDRVTITCRASQGISHYLAWYQQKPGKVPKLLIYAASTLQSGVPSRFSGSGSGTDFTLTISSLQPEDVATYYCQKYNSVPWTFGQGTKVEIK
notes: human IgG4 Fc (H4H prefix)
hRET.mmh [1]
  Kd: 0.984 nM
  koff: 0.000301 s⁻¹
  kon: 306000 M⁻¹ s⁻¹
  t½: 38 min
[2]
  Kd: 1.13 nM
  koff: 0.000315 s⁻¹
  kon: 278000 M⁻¹ s⁻¹
  t½: 37 min
hRET.mFc [3]
  Kd: 0.645 nM
  koff: 0.000181 s⁻¹
  kon: 280000 M⁻¹ s⁻¹
  t½: 64 min
hRET.mmh [4]
  Kd: 1.81 nM
  koff: 0.0013 s⁻¹
  kon: 718000 M⁻¹ s⁻¹
  t½: 9 min
[5]
  Kd: 1.92 nM
  koff: 0.00135 s⁻¹
  kon: 704000 M⁻¹ s⁻¹
  t½: 9 min
hRET.mFc [6]
  Kd: 2.05 nM
  koff: 0.000694 s⁻¹
  kon: 338000 M⁻¹ s⁻¹
  t½: 17 min
hRET.mmh [7]
  % Max Blocking: 95%
  IC50: < 0.25 nM

B2: H4H8044P (antibody, human IgG4, V domains shown)
VH: QVQLVESGGGVVQPGRSLRLSCAASGFTFSGSGMHWVRQAPGKGLEWVAVIWEDGSNKYYADSVRGRFTISRDNFKNTLYLQMNSLRAEDTAVYYCARQTMVRGVIRFYYYYYGMDVWGQGTTVTVSS
VL: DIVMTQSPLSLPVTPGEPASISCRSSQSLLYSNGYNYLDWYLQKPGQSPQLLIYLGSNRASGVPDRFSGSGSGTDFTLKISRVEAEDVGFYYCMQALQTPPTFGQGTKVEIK
notes: human IgG4 Fc (H4H prefix)
hRET.mmh [1]
  Kd: 5.49 nM
  koff: 0.000488 s⁻¹
  kon: 88800 M⁻¹ s⁻¹
  t½: 24 min
[2]
  Kd: 14.7 nM
  koff: 0.00135 s⁻¹
  kon: 92000 M⁻¹ s⁻¹
  t½: 9 min
hRET.mFc [3]
  Kd: 1.97 nM
  koff: 0.000211 s⁻¹
  kon: 107000 M⁻¹ s⁻¹
  t½: 55 min
hRET.mmh [4]
  Kd: 18.6 nM
  koff: 0.00281 s⁻¹
  kon: 151000 M⁻¹ s⁻¹
  t½: 4 min
[5]
  Kd: 48.5 nM
  koff: 0.00521 s⁻¹
  kon: 108000 M⁻¹ s⁻¹
  t½: 2 min
hRET.mFc [6]
  Kd: 6.21 nM
  koff: 0.00085 s⁻¹
  kon: 137000 M⁻¹ s⁻¹
  t½: 14 min
hRET.mmh [7]
  % Max Blocking: 91%
  IC50: 5.2 nM

B3: H4H8045P (antibody, human IgG4, V domains shown)
VH: EVQLVESGGALVQPGGSLRLSCAASGFTFSNYAMTWVRQAPGMGLEWVSGISSSGASTFYADSVKGRFTISRDNSKNTLYLQMNSLRAEDTAVYYCAKEDYWGWFDYWGQGTLVTVSS
VL: DIQLTQSPSFLSASVGDRVTITCWASQDVSSYLAWYQQEPGKAPKVLIYDASTLQSGVPSRFSGSGSGTEFTLTISSLQPEDFAPYYCQQLNSYPYTFGQGTKLEIK
notes: human IgG4 Fc (H4H prefix)
hRET.mmh [1]
  Kd: 0.883 nM
  koff: 0.000246 s⁻¹
  kon: 279000 M⁻¹ s⁻¹
  t½: 47 min
[2]
  Kd: 14.6 nM
  koff: 0.0028 s⁻¹
  kon: 192000 M⁻¹ s⁻¹
  t½: 4 min
hRET.mFc [3]
  Kd: 0.229 nM
  koff: 8.71e-05 s⁻¹
  kon: 381000 M⁻¹ s⁻¹
  t½: 133 min
hRET.mmh [4]
  Kd: 3.22 nM
  koff: 0.00127 s⁻¹
  kon: 395000 M⁻¹ s⁻¹
  t½: 9 min
[5]
  Kd: 50.3 nM
  koff: 0.0131 s⁻¹
  kon: 261000 M⁻¹ s⁻¹
  t½: 1 min
hRET.mFc [6]
  Kd: 0.834 nM
  koff: 0.000382 s⁻¹
  kon: 459000 M⁻¹ s⁻¹
  t½: 30 min
hRET.mmh [7]
  % Max Blocking: 75%
  IC50: 0.34 nM
